B1: Arabidopsis thaliana cytosolic triosephosphate isomerase (enzyme, UniProt P48491 1-254, looked up)
chain: MARKFFVGGNWKCNGTAEEVKKIVNTLNEAQVPSQDVVEVVVSPPYVFLPLVKSTLRSDFFVAAQNCWVKKGGAFTGEVSAEMLVNLDIPWVILGHSERRAILNESSEFVGDKVAYALAQGLKVIACVGETLEEREAGSTMDVVAAQTKAIADRVTNWSNVVIAYEPVWAIGTGKVASPAQAQEVHDELRKWLAKNVSADVAATTRIIYGGSVNGGNCKELGGQADVDGFLVGGASLKPEFIDIIKAAEVKKSA
notes: cytosolic triosephosphate isomerase of Arabidopsis thaliana; also called AtcTPI; cytosolic TPI isoform of A. thaliana
B2: Synechocystis sp. PCC 6803 triosephosphate isomerase (enzyme)
chain: GPHMRKIIIAGNWKMHKTQAEAQAFLQGFKPLIEDAAESREVVLCVPFTDLSGMSQQLHGGRVRLGAQNVHWEASGAYTGEISAAMLTEIGIHYVVIGHSERRQYFGETDETANLRVLAAQKAGLIPILCVGESKAQRDAGETEQVIVDQVKKGLVNVDQSNLVIAYEPIWAIGTGDTCAATEANRVIGLIREQLTNSQVTIQYGGSVNANNVDEIMAQPEIDGALVGGASLEPQSFARIVNFQP
notes: triosephosphate isomerase of Synechocystis sp; PCC 6803, GenBank BAK50928.1; Crystallised with the substrate analog 2-phosphoglycolate (2-PG); also called SyTPI; Synechocystis TPI; source: E. coli BL21 (DE3) Δtpi, purified (HisTrap, PreScission Protease, Superdex 75 gel filtration); not shown: His tag (from the HisTrap column and the modified pET19 vector), N-terminal, cleaved

Molecular target: the molecule itself
Experiment: SEC; Superdex 75 10/300 column, compared with MW standards (conalbumin, ovalbumin, carbonic anhydrase, Ribonuclease A); apparent molecular mass of SyTPI 54 kDa

Protein | stoichiometry N
B1 | 2
B2 | 2

— article PMC6277545, “Structural Basis for the Limited Response to Oxidative and Thiol-Conjugating Agents by Triosephosphate Isomerase From the Photosynthetic Bacteria Synechocystis” (Frontiers in Molecular Biosciences, 2018)
